Bridges are numbered along the chain shown (N, C = ends). Where no end group is shown, it is not given here. [ ]: non-standard residue; d: D form. Cit = NC(=O)NCCC[C@H](N)C(=O)O; Nal = naphthylalanine
Molecular target: CXCR4 ligand
Experiment: cell-based or functional assay

Row | Binder | EC50 (nM): anti-HIV activity, concentration where MT-4 cell death by HIV-1 (IIIB) infection is inhibited by 50% (MTT method) [nM]
1 | XRXCYRKXPYRXCR (Cit at 1; Nal at 3; D-Cit at 8; Cit at 12; C-terminal amide (NH2); Cys4-Cys13 disulfide (cyclised by air oxidation)) [TC14018] | 1.2
2 | RRXCYXKXPYRXCR (Nal at 3; Cit at 6; D-Cit at 8; Cit at 12; C-terminal OH; Cys4-Cys13 disulfide (cyclised by air oxidation)) [TC14011] | 0.5
3 | RR[Nal]CY[Cit]K[dK]PYR[Cit]CR-OH (disulfide 4-13) [TC14003] | 2.8
4 | RRXCYXKXPYRXCR (Nal at 3; L-citrulline at 6; D-citrulline at 8; L-citrulline at 12; C-terminal amide (NH2); Cys4-Cys13 disulfide (cyclised by air oxidation)) [TC14012] | 0.4
5 | RRXCYRKXPYRXCR (not fully specified; Nal at 3; D-citrulline at 8; L-citrulline at 12; C-terminal OH; Cys4-Cys13 disulfide (cyclised by air oxidation)) [TC14005] | 4
6 | RRXCYRKXPYRXCR (Nal at 3; D-Cit at 8; Cit at 12; C-terminal amide (NH2); Cys4-Cys13 disulfide (cyclised by air oxidation)) [TN14005] | 4.6
7 | RRXCYRKXPYXXCR (Nal at 3; D-Cit at 8; Cit at 11 and 12; C-terminal OH as printed; Cys4-Cys13 disulfide (cyclised by air oxidation)) [TC14020] | 2.7
8 | RR[Nal]CY[Cit]K[dK]PYR[Cit]CR-NH2 (disulfide 4-13) [TN14003] | 0.6

Source: patent publication US20100222256A1 (BIOKINE THERAPEUTICS, published 2010)
